How the values were obtained:
[1] = molecular target: RHNO1-pT202 phospho-peptide (human); experiment: fluorescence polarisation
[2] = molecular target: Mdb1-pT113 phosphopeptide (fluorescein-labelled) (S. pombe); experiment: fluorescence polarisation

| fold tighter binding than RAD9-pS387 [1] [fold] | fold reduction of binding against wild type [2] [fold] | Substance |
| --- | --- | --- |
| 10 | – | TOPBP1-BRCT0,1,2 segment (wild type, recombinant) (domain or fragment) |
| – | 20 | Rad4-BRCT1,2 K155E (domain or fragment) |

Reference: article doi:10.1101/368936
